{
  "source": "paper PMC11742385",
  "about": "“Selection and Characterization of a DNA Aptamer Recognizing High Mobility Group Box 1 Protein (HMGB1) and Enhancing Its Pro-inflammatory Activity”",
  "binders": {"B1": {"name": "H-ap25 (structured_DNA)", "DNA": "GGACAAGAATCACCGCTCTGGGTTTGGCGTCGGGCCTGGCGAAAGGTGGTTGTGCGGAGAGAGCGTACAGGAGGCATACAG"}},
  "key": {"rhHMGB2": {"molecular_target": "T1, rhHMGB2 (UniProt P26583 1-209)", "T1 sequence": "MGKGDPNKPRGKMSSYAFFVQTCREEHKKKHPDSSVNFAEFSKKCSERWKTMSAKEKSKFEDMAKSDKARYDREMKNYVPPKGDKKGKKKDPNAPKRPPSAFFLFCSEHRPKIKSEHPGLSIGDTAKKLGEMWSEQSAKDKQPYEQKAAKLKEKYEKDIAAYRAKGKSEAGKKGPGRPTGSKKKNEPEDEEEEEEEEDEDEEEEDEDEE", "assay": "microplate aptamer binding assay; 1 mM Mg2+, 1 mM Ca2+; 5 nM aptamer; SHMCK: 20 mM Hepes, 120 mM NaCl, 5 mM KCl, 1 mM MgCl2, 1 mM CaCl2, pH 7.4, 37 C, 1 h; protein coated 2 pmol/well, 3% BSA block, PBST washes", "conditions": "protein: commercial; predicted hairpin (9-50) and stem-loops (52-69) linked by a T"}, "rhHMGB1 A box": {"molecular_target": "T2, rhHMGB1 A box (Homo sapiens, UniProt P09429 9-79)", "T2 sequence": "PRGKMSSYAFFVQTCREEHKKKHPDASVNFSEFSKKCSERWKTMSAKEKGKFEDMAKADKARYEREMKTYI", "assay": "microplate aptamer binding assay; dot blot; 1 mM Mg2+, 1 mM Ca2+; 5 nM aptamer (microplate); SHMCK: 20 mM Hepes, 120 mM NaCl, 5 mM KCl, 1 mM MgCl2, 1 mM CaCl2, pH 7.4, 37 C, 1 h; protein coated 2 pmol/well, 3% BSA block, PBST washes", "conditions": "protein: recombinant; tags: His tag implied (pET28a, Ni-NTA); predicted hairpin (9-50) and stem-loops (52-69) linked by a T"}, "rhHMGB1": {"molecular_target": "rhHMGB1 (Homo sapiens, UniProt P09429 1-215)", "sequence (P09429 whole entry)": "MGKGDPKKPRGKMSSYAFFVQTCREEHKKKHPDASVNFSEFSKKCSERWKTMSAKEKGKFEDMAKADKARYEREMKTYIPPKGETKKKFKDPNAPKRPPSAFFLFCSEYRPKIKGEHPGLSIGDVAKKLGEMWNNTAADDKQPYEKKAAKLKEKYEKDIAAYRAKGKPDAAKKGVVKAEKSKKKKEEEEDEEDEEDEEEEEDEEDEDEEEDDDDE", "assay": "microplate aptamer binding assay (streptavidin-HRP); 1 mM Mg2+, 1 mM Ca2+; SHMCK: 20 mM Hepes, 120 mM NaCl, 5 mM KCl, 1 mM MgCl2, 1 mM CaCl2, pH 7.4, 37 C, 1 h; protein coated 2 pmol/well, 3% BSA block, PBST washes", "conditions": "protein: recombinant; tags: His tag implied (pET28a, Ni-NTA); predicted hairpin (9-50) and stem-loops (52-69) linked by a T"}},
  "data": [
    {"binder": "B1", "values": [
      {"measurement": "binding result", "setting": "rhHMGB2", "value": "no binding"},
      {"measurement": "binding result", "setting": "rhHMGB1 A box", "value": "no binding"},
      {"measurement": "Kd", "setting": "rhHMGB1", "value": "8.2 ± 0.53", "unit": "nM"}
    ]}
  ]
}
